# From article PMC11066147 (Heliyon, 2024)
# Several values for one entry are separate records, joined by “and”; a condition that tells them apart may be missing. Equal values may be shown once. Read-outs that look alike come from different tables or passages of the source.
# B1: Plasmodium falciparum Hsp110 (PfHsp70-z, PF3D7_0708800) (natural protein)
# chain: MSVLGIDIGNDNSVVATINKGAINVVRNDISERLTPTLVGFTEKERLIGDSALSKLKSNYKNTCRNIKNLIGKIGTDVKDDIEIHEAYGDLIPCEYNYLGYEVEYKNEKVVFSAVRVLSALLSHLIKMAEKYIGKECKEIVLSYPPTFTNCQKECLLAATKIINANVLRIISDNTAVALDYGMYRMKEFKEDNGSLLVFVNIGYANTCVCVARFFSNKCEILCDIADSNLGGRNLDNELIKYITNIFVNNYKMNPLYKNNTPELCPMGTGRLNKFLVTSTASDQQNGINNKVRIKLQEVAIKTKKVLSANNEASIHVECLYEDLDCQGSINRETFEELCSNFFLTKLKHLLDTALCISKVNIQDIHSIEVLGGSTRVPFIQNFLQQYFQKPLSKTLIADESIARGCVLSAAMVSKHYKVKEYECVEKVTHPINVEWHNINDASKSNVEKLYTRDSLKKKVKKIVIPEKGHIKLTAYYENTPDLPSNCIKELGSCIVKINEKNDKIVESHVMTTFSNYDTFTFLGAQTVTKSVIKSKDEKKKADDKTEDKGEKKDAKDQEQNDDKDQTNDNNMNEKDTNDKKEKNNETNSPNKTELKKGEEGKVQTCYTTIPIETLLAQGSYSSKDIFNFSEQEINMQHSDILEGERLKHLNELETIIYESRSRLNGIYKNFVMDDERDRILLSLDDYENWLYDNIEENKNMFIKKKEEIRDLIKNIVQKFDVYNSKQQNLGNIINHLNNIITQCSNKPSDESQNIINRTTKFLNNINSLQEQEKNKPLYEPPVYTLNDIEAEFNEVTQLAQKFFSKLEVEELAKQKAKQEKEKEKEKEKEKEKEKEKNEETNLDANEEQNNEAKNNEEKENSTKNENSANPEE
# B2: Plasmodium falciparum heat shock protein 70-1 (PfHsp70-1) (natural protein)
# chain: not shown
# Columns and labels:
# Experiment in all cases: SPR
# [1] = biological target: B2
# E. coli Hsp70 (DnaK) [2] = biological target: T1, E. coli Hsp70 (DnaK) (E. coli, UniProt P0A6Y8 1-638)
# [3] = biological target: B1
# [4] = biological target: B2; remark: listed apart in the source
# E. coli Hsp70 (DnaK) [5] = biological target: T1, E. coli Hsp70 (DnaK); remark: listed apart in the source
# [6] = biological target: B1; remark: listed apart in the source
# SPR = biological target: the molecule itself
# [7] = biological target: B1; remark: listed apart in the source
Binder,Kd [1] [nM],Kd (E. coli Hsp70 (DnaK) [2]) [nM],Kd [3] [nM],Kd [4] [nM],Kd (E. coli Hsp70 (DnaK) [5]) [nM],Kd [6] [nM],koff (SPR),binding result [7]
NRLLTG,181 ± 0.01,2530 ± 30,128 ± 0.08,97.4 ± 0.04,12.3 ± 0.03,145 ± 0.03,–,–
NRNNTG,296 ± 0.07,7310 ± 10,52.5 ± 0.05,10.2 ± 0.02,24.9 ± 0.09,24.1 ± 0.01,–,–
ALLLMYRR,140 ± 0.4,4450 ± 50,97.1 ± 0.09,61.8 ± 0.08,82 ± 0.02,43.1 ± 0.01,–,–
ANNNMYRR,45.4 ± 0.07,8960 ± 60,8.31 ± 0.01,4.02 ± 0.02,440 ± 4,9.37 ± 0.07,–,–
B1,–,–,–,–,–,–,5.27e-05 s⁻¹ and 7.73e-05 s⁻¹ and 3.37e-05 s⁻¹,–
B2,–,–,–,–,–,–,–,binds
